US20250297018A1, “IL-18BP ANTAGONIST ANTIBODIES AND THEIR USE IN MONOTHERAPY AND COMBINATION THERAPY IN THE TREATMENT OF CANCER” (Compugen Ltd., priority 2022, published 2025)

T1: IL18-BP (Mus musculus, UniProt Q9Z0M9)
T1 sequence (Q9Z0M9 29-193): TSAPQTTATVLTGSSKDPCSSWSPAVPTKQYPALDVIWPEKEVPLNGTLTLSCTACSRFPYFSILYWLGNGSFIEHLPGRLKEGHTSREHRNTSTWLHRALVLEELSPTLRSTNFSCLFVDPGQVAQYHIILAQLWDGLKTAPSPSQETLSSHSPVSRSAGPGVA

B1: Engineered IL-18: engineered IL-18, sequence from US 20190070262A1, listed therein as mCS2 (SEQ ID NO: 61) (protein)
chain: HFGRLHCTTAVIRNINDQVLFVDKRQPVFEDMTDIDQSASEPQTRLIIYAYGDSRARGKAVTLSVKDSKMSTLSCKNKIISFEEMDPPENIDDIQSDLIFFQKRVPGHNKMEFESSLYEGHFLACQKEDDAFKLILKKKDENGDKSVMFTLTNLHQSHHHHHH
B2: BOJ-5G4-F4: Anti PVRIG mAb 407 mAb mouse IgG1 (antibody, V domains shown)
VH: QVQLQQSGAELAKPGSSVMISCKASGYTFTNYAVHWIKQTTGQALEWTGYIAPGSGVTKYNEKFKGKATLTVDKSSTTAYMQLSSLTPVDTAVYYCASGTTRFAYWGQGTLVTVSS
VL: DIVLTQSPALAVSLGQRATISCRASQSVSLSSYNLMQWYQQKPGQEPKILIYDASNLPSGIPARFSGSGSGTDFTLTIDPVQADDIATYYCQQSKDDPLTFGSGTKLEIK

How the values were obtained:
[1] = MC38ova tumor-bearing mice treated with anti-mIL18BP or engineered mIL-18: weight, serum cytokines, spleen; assay type: in vivo, mouse
Experimental: Experiments were performed in C57Bl/6 (female, 6-8 wk, Envigo). Mice were anesthetized with 10% Ketamine and 10% Xylazine mixture injected intraperitoneal. Next, mice were inoculated with MC38ova cells (1.2×10^6) subcutaneously to the right flank in 50 μl/mice.
Spleens were harvested from mice 24 hours after the 4th treatment and weighed. For IL15 experiments, mice were treated with a single dose of 0.5 μg, 1.5 μg of IL15, or with a mix of 0.5 μg IL15 and 2.33 μg IL15R.

[2] = molecular target: T1, IL18-BP; conditions: cited from earlier work
[3] = tested on: B16/Db-hmgp100 melanoma; test: Syngeneic B16/Db-hmgp100 mouse tumor model; assay type: in vivo; conditions: anti-PVRIG combination study, vs isotype control mAbs
Experimental: B16/Db-hmgp100 cells were kindly provided by Dr. Hanada et al. (HHS agency) and were licensed from NIH. B16/Db-hmgp100 cells were generated by double transduction of B16F10 with H-2 Db and a retrovirus that encodes chimeric mouse gp100 that is comprised of the human gp10025-33 and the rest of mouse gp100. Cells were cultured in RPMI 1640 (Biological Industries, 01-100-1A) with 10% FBS (Biological Industries, 04-127-1A), and 100 μg/mL penicillin/streptomycin (Biological Industries, 03-031-1B), 1% Glutamax (Life technologies, 35050-038, 1% Sodium pyruvate (Biological Industries, 03-042-1B), 0.01% 2-mercaptoethanol (Life technologies, 31350-010, 10 μg/ml Blasticidin (InvivoGen, ant-bl-05). 1×10^5 B16/Db-hmgp100 cells subcutaneously into the back right flank of mice. […]
At day 4 post tumor inoculation mice were treated with mAbs (as detailed below) injected on day 4, 7, 11, 14, 18 and 21 post inoculation. Tumor growth was measured with caliper every 2-3 days. […]
Two-way ANOVA with repeated measures, followed by two-way ANOVA with repeated measures for selected pairs of groups using JMP (Statistical Discoveries™) software. Analyses of tumor growth measurements were performed by comparing tumor volumes measured on the last day on which all study animals were alive. Statistical differences in percentage of mice tumor free were determined by a Log Rank Mantel-Cox test. […]

| Molecule | Serum levels of IFNg, TNFa, MCP1 and IL6 ([1]; 4 hours after the 4th treatment, 0.32 mg/kg SC) | Serum levels of IL18 ([1]; 4 hours after the 4th treatment, detection identifies also engineered IL18) | Serum levels of IFNg ([1]; 24 hours after the 4th treatment) | Spleen enlargement compared to control ([1]; 24 hours after the 4th treatment, average) | Serum levels of IL18 ([1]; by 24 hours after the 4th treatment) | Binding to IL18-BP [2] | Tumor growth [3] |
| --- | --- | --- | --- | --- | --- | --- | --- |
| B1 | elevated serum levels of IFNg, TNFa, MCP1 and IL6 | very high serum levels of IL18 | elevated serum levels of IFNg | 4.9 folds | returned to baseline | shown not to bind IL18-BP | – |
| B2 | – | – | – | – | – | – | comparable tumor growth to mice treated with isotype control mAbs |
